Results: patent US8883153B2, “Methods for preventing and treating angioedema” (The Research for The State University of New York, priority 2009, dated 2014)
Each block holds one molecule with its values, some of them ahead of it.

Key:
[1] = target: T1, HK (Homo sapiens, UniProt P01042); experiment: solid phase ELISA, gC1q-R peptides supporting HK binding
T1 sequence (P01042 19-644): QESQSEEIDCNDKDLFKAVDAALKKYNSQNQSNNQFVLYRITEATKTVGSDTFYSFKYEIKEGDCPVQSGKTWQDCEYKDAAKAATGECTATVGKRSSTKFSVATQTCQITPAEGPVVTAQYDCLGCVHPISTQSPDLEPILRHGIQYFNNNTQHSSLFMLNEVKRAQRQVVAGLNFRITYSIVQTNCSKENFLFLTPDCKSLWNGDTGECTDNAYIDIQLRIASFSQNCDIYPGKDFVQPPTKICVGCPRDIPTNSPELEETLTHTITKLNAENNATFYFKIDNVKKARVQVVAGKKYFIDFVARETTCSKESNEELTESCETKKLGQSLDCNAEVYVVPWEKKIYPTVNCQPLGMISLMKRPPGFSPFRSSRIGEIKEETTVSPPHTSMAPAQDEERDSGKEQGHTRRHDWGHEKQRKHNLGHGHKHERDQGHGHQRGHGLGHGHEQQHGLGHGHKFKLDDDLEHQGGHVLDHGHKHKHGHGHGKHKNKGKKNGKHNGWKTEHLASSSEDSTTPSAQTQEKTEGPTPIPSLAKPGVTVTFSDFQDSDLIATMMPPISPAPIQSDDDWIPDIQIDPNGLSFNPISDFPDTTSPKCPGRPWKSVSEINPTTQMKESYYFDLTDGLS
Text: By peptide mapping and antibody inhibition studies, we have previously identified a binding site for HK in a gC1q-R domain contained within residues 204-218. […] Thus a possible binding site(s) elsewhere in the molecule was sought. Several peptides were synthesized that correspond with the gC1q-R domains of very high negative charge and, which based on their location in the crystal structure on the solution-face, are hypothesized to interact with solution-phase ligands. […] HK was bound to wells coated with peptide 190-202 and was detected by a monoclonal antibody to HK. […] These antibodies have now been isotyped to be IgG1k.

[2] = target: T2, recombinant gC1q-R (Homo sapiens, UniProt Q07021); experiment: competitive binding ELISA, biotinylated gC1q-R to coated HK peptide
T2 construct: made in house
T2 sequence (Q07021 74-282): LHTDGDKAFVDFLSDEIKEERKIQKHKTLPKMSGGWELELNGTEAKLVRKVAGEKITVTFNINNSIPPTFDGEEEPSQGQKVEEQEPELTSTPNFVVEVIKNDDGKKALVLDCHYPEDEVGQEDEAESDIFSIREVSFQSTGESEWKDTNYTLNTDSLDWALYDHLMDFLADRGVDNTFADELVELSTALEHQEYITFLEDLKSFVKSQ
Method: FIG. 5. Panel A: Solution phase HKH20 inhibits binding of gC1q-R to microtiter bound HKH. ELISA wells were first coated with 50 μg/ml peptide HKH20 (SEQ ID NO:11). The wells were then incubated either with biotinylated gC1q-R (5 μg/ml) alone (lane 2) or in the presence of 10 μg/ml (lane 3) or 50 μg/ml (lane 4) HKH20. […] was coated with biotinylated gC1q-R (1 μg/ml) and detected with alkaline-phosphatase conjugated NeutrAvidin. The figure is a representative of two experiments done in duplicate. […] Panel B: HKH20 and histidine-rich fragments bind to gC1q-R. Binding of gC1q-R to HKH-20 (SEQ ID NO:11), HKH-10-1 (residues 479-488; SEQ ID NO:13), HKH-10-2 (residues 484-493; SEQ ID NO:14), and HKH-10-3 (residues 489-498; SEQ ID NO:15). The negative control is binding to BSA.
As discussed earlier, gC1q-R binds HK through a site on domain 5 that is located on the light chain of HK. […] This experiment was performed by competitive binding studies in which ELISA plate wells coated with 100 μg/ml HK peptide were incubated with biotinylated gC1q-R (1 μg/ml) in the presence or absence of increasing concentrations of peptide as a solution phase competitor. […] (FIG. 5B)

[3] = tested on: endothelial cells; conditions: cited from earlier work
[4] = target: HUVECs; conditions: zinc-dependent; read-out: Kd of binding to HUVECs; cited from earlier work

capture of HK from diluted plasma on peptide-coated wells ([1]; plasma 1:10 in TBS, detected by monoclonal antibody to HK): HK was bound | ability to support HK binding ([1]; solid phase ELISA): strongly supported binding of HK
Molecule: EDEVGQEDEAESD (listed as Homo sapiens) [peptide 190-202, gC1q-R 190-202]

inhibition of gC1q-R binding to coated HK peptide by solution phase peptide ([2]; 50 μg/ml HKH20): totally inhibited | binding of gC1q-R to the peptide ([2]; ELISA wells coated with peptide): bound strongly
Molecule: HKHGHGHGKHKNKGKKNGKH (listed as Homo sapiens) [HKH20, HK 479-498, domain 5]
inhibition of the interaction of HK with intact endothelial cells [3]: inhibit

B1: HK: high molecular weight kininogen, 115 kDa non-enzymatic plasma glycoprotein (protein, UniProt P01042 19-644, looked up)
Kininogen-1: T1 sequence (P01042 19-644)
Kd [4]: 40 to 50 nM
